In US20120142098A1 (NOVIMMUNE S A, published 2012):

B1: chimeric IgG1 15C1 mutant # D (SAAL at EU positions 325 to 328) (antibody, V domains shown)
VH: DVQLQESGPDLIQPSQSLSLTCTVTGYSITGGYSWHWIRQFPGNKLEWMGYIHYSGYTDFNPSLKTRISITRDTSKNQFFLQLNSVTTEDTATYYCARKDPSDGFPYWGQGTLVTVSA
VL: DIVMTQSPATLSVTPGDRVSLSCRASQSISDHLHWYQQKSHESPRLLIKYASHAISGIPSRFSGSGSGTDFTLSIKSVEPEDIGVYYCQNGHSFPLTFGAGTKLELK
notes: Positions are in EU numbering; not shown: human IgG1 heavy chain constant region; human Kappa light chain constant region
B2: chimeric IgG1 15C1 mutant # H (NKAF at EU positions 325 to 328) (antibody, V domains shown)
VH: B1 VH
VL: B1 VL
notes: as for B1
B3: chimeric IgG1 15C1 mutant # G (NAAF at EU positions 325 to 328) (antibody, V domains shown)
VH: B1 VH
VL: B1 VL
notes: as for B1
B4: chimeric IgG1 15C1 mutant # F (SKAF at EU positions 325 to 328) (antibody, V domains shown)
VH: B1 VH
VL: B1 VL
notes: as for B1
B5: chimeric IgG1 15C1 mutant # E (NAAL at EU positions 325 to 328) (antibody, V domains shown)
VH: B1 VH
VL: B1 VL
notes: as for B1
B6: chimeric IgG1 15C1 mutant # C (SAAF at EU positions 325 to 328) (antibody, V domains shown)
VH: B1 VH
VL: B1 VL
notes: as for B1
B7: 15C1 humanized VH mutant 1 together with 15C1 humanized VL A26 (antibody, human IgG1, V domains shown)
VH: QVQLQESGPGLVKPSDTLSLTCAVSGYSITGGYSWHWIRQPPGKGLEWMGYIHYSGYTDFNPSLKTRITISRDTSKNQFSLKLSSVTAVDTAVYYCARKDPSDAFPYWGQGTLVTVSS
VL: EIVLTQSPDFQSVTPKEKVTITCRASQSISDHLHWYQQKPDQSPKLLIKYASHAISGVPSRFSGSGSGTDFTLTINSLEAEDAATYYCQNGHSFPLTFGGGTKVEIK
notes: also called version VH mutant 1
B8: chimeric IgG1 15C1 (antibody, V domains shown)
VH: B1 VH
VL: B1 VL
notes: also called chimeric 15C1; 15C1 on a human IgG1 backbone
B9: A mu 231-261 CH2 chimeric IgG1 15C1 (antibody, V domains shown)
VH: B1 VH
VL: B1 VL
notes: It is built that way here; copies: 2 + 2
B10: B mu 319-340 CH2 chimeric IgG1 15C1 (antibody, V domains shown)
VH: B1 VH
VL: B1 VL
notes: as for B9
B11: C mu 296-318 CH2 chimeric IgG1 15C1 (antibody, V domains shown)
VH: B1 VH
VL: B1 VL
notes: copies: 2 + 2
B12: D mu 262-295 CH2 chimeric IgG1 15C1 (antibody, V domains shown)
VH: B1 VH
VL: B1 VL
notes: copies: 2 + 2
B13: muCH2-chimeric IgG1 15C1 (antibody, V domains shown)
VH: B1 VH
VL: B1 VL
notes: domain: CH1 and hinge; The CH2 domain of human IgG1 is replaced with that of mouse IgG1; Limits are in EU numbering; also called chimeric IgG1 15C1 containing mouse CH2; muCH2 chim 15C1; not shown: mouse IgG1 heavy chain CH2 domain, EU positions 231 to 340; human IgG1 heavy chain CH3 domain (after EU position 340); human Kappa light chain constant region
B14: huCH2-mouse IgG1 15C1 (antibody, V domains shown)
VH: B1 VH
VL: B1 VL
notes: domain: CH1 and hinge; The CH2 domain of mouse IgG1 is replaced with that of human IgG1; Limits are in EU numbering; also called mouse IgG1 15C1 containing human CH2; not shown: human IgG1 heavy chain CH2 domain, EU positions 231 to 340; mouse IgG1 heavy chain CH3 domain (after EU position 340); mouse kappa light chain constant region
B15: chimeric MAb with the 15C1 variable region on a human IgG4 backbone (antibody, V domains shown)
VH: B1 VH
VL: B1 VL
notes: also called hIgG4 15C1; human IgG4 version of 15C1
B16: mouse IgG1 15C1 (antibody, V domains shown)
VH: B1 VH
VL: B1 VL
notes: Murine IgG1/K antibody; The hybridoma-derived and the PEAK-cell recombinant forms are treated as one molecule; also called mu15C1; murine 15C1

The binders below were run against T1, human TLR4/MD2 complex expressed on the cell surface (human, UniProt O00206 24-839; Q9Y6Y9 19-160) (assay: FACS on CHO stable cell line expressing human TLR4/MD2).
T1 construct: also called CHO TLR4/MD2 transfectants
T1 sequence (O00206 24-839 limits assumed, chain 1 of 2): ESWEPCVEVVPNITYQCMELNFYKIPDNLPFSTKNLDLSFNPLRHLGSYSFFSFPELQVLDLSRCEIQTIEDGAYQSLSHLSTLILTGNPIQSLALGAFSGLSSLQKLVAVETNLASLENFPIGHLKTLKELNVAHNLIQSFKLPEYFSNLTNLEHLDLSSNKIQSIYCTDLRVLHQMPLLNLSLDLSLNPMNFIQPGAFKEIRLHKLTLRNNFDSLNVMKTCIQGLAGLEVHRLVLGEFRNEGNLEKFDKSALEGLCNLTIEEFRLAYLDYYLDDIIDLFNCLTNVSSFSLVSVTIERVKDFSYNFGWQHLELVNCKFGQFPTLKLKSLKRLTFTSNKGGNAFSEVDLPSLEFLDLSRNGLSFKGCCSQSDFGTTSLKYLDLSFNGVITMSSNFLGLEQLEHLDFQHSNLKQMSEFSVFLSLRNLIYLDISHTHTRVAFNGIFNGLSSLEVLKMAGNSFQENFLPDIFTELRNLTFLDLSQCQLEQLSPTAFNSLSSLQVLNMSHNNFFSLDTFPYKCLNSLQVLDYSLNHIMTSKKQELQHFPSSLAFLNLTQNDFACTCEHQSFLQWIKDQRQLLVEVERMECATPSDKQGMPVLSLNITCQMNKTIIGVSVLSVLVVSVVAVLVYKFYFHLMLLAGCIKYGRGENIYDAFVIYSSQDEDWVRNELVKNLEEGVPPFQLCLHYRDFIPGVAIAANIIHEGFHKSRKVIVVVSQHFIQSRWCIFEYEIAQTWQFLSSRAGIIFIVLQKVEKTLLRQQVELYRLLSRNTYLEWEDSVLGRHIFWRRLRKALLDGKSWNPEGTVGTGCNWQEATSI
T1 sequence (Q9Y6Y9 19-160 R56G limits assumed, chain 2 of 2): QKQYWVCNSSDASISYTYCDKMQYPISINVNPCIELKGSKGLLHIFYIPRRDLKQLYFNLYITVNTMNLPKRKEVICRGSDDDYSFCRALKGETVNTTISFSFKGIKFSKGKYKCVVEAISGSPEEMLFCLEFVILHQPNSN

Row | binding result | Binder
1 | binds | B1
2 | binds | B2
3 | binds | B3
4 | binds | B4
5 | binds | B5
6 | binds | B6

The binders below were run against T1, human TLR4/MD2 complex expressed on the … (assay: FACS (MFI) on CHO cells expressing human TLR4-MD2; PEAK supernatants at 0.33, 0.11 and 0.04 ug/ml).
Procedure: The binding of these mutants was analyzed by FACS on cells expressing recombinant human TLR4-MD2. PEAK cells were co-transfected with 1 ug of combinations of expression vectors encoding 15C1 humanized VH mutant 1 or 2 together with 15C1 humanized VL A26 or 15C1 humanized VH 4-28 together with 15C1 humanized VL mutant 1, 2, 3 or 4 shown in Example 4 using the Trans IT-LT1 transfection reagent (Mirus Bio Corporation, Madison Wis.). All transfections were carried out in duplicates. 72 h post-transfection, PEAK cells supernatants were collected and the concentration of recombinant human IgG1/Kappa measured by ELISA. The antibody concentrations of all the supernatants were then adjusted to 0.33 μg/ml. These supernatants and two serial dilutions of 0.11 and 0.04 ug/ml were then tested for binding to CHO cells expressing human TLR4-MD2 at their surface by FACS. 5×10⁵ cells were incubated with the diluted PEAK supernatant for 1 h at 4° C.

Row | binding result | Binder
7 | binds | B7

What follows are binders tested against T1, human TLR4/MD2 complex expressed on the … (assay: FACS on CHO stable cell line expressing human TLR4-MD2 complex).
Procedure: Studies were then designed to evaluate which residues of the mouse CH2 domain are necessary for Fc-mediated inhibitory activity. Starting with the chimeric IgG115C1 containing the full length mouse CH2 domain, the approach was to identify the critical region of the CH2 domain by introducing a maximum number of human residues without observing a loss of the Fc-mediated inhibitory activity. The identification of these critical residues was determined by subdividing the mouse CH2 into 4 parts (A: EU positions 231 to 261; B: EU positions 319 to 340; C: EU positions 296-318 and D: EU positions 262 to 295) and introducing for each of the 4 sub-regions the corresponding CH2 amino acid sequence of a human IgG1 (see FIG. 6A). The sub-division of the mouse CH2 into four subregions was purely based on amino acid sequence homology with the human CH2. The four heavy chain mutants were engineered by overlapping PCR and recombinant MAbs expressed in PEAK. The corresponding antibodies were purified from transfected-cell supernatants by protein G affinity column chromatography and binding to CHO stable cell line expressing human TLR4-MD2 complex on their surface of the following antibodies was determined: muCH2-chimeric IgG1 15C1; chimeric IgG1 15C1; A mu 231-261 CH2 chimeric IgG1 15C1; B mu 319-340 CH2 chimeric IgG1 15C1; C mu 296-318 CH2 chimeric IgG1 15C1; and D mu 262-295 CH2 chimeric IgG1 15C1. 4×10⁵ cells/well were incubated for 30 minutes at 4° C. in 50 μl of phosphate buffered saline (PBS) with 1% bovine serum albumin (PBS-1% BSA) and either serial dilution of the appropriate antibody or an irrelevant human IgG1 isotype control. Cells were washed once with PBS-1% BSA and incubated in the same buffer with FMAT-Blue®-conjugated goat anti-human Kappa light chain antibody (1:250 dilution, Sigma K3502) for 30 minutes at 4° C. Cells were washed twice with PBS-1% BSA and analyzed using a FACScalibur® flow cytometer […] in the FL-4 channel.

Row | binding result | Binder
8 | binds | B8
9 | binds | B9
10 | binds | B10
11 | binds | B11
12 | binds | B12

What follows are binders tested against T1, human TLR4/MD2 complex expressed on the … (assay: FACS on CHO TLR4/MD2 transfectants).

Row | binding result | Binder
13 | binds | B13
14 | binds | B14

These binders were tested against T1, human TLR4/MD2 complex expressed on the … (assay: binding to TLR4/MD-2 transfected CHO cells).

Row | binding result | Binder
15 | binds | B15
16 | binds | B16
